Test [1] has as its target T1, lysine-acetylated histone H4 peptide SGRGKGG-AcK-GLGK.
T1 chain: SGRGKGGKGLGK
Put plainly: NMR titration, 15N-HSQC chemical shift changes against ligand concentration. The following applies: remark: other sources report otherwise.

In test [2] the target is T2, lysine-acetylated histone H4 peptide SGRGKGG-AcK-GLGK.
T2 construct: also called H4 AcK-Peptide; AcK peptide
T2 peptide: SGRGKGGK(Ac)GLGK
Described as above.

For test [3], the target named is T3, lysine-acetylated histone H4 peptide SGRGKGG-AcK-GLGK.
T3 construct: also called AcK peptide; AcK-containing H4 peptide
T3 peptide: SGRGKGGK(Ac)GLGK
Put plainly: NMR titration, 15N-HSQC.

Test [4] addresses T2, lysine-acetylated histone H4 peptide …. Put plainly: NMR titration, 15N-HSQC chemical shift changes.

Where two headings read alike, the source gives them in different places. Ends that are not written are not given here. Some results are limits rather than exact numbers.

B1: P/CAF bromodomain Tyr802Ala mutant, Q92831 719-832 (protein)
chain: SKEPRDPDQLYSTLKSILQQVKSHQSAWPFMEPVKRTEAPGYYEVIRFPMDLKTMSERLKNRYYVSKKLFMADLQRVFTNCKEANAAESEYYKCANILEKFFFSKIKEAGLIDK
modifications: here or on the partner: acetyl-lysine (AcK) at Lys8
Broadly, the Kd is the free concentration of one partner at which half of the binding sites on the other are occupied at equilibrium, for simple one-to-one binding. For the molecule B1, the Kd in test [1] is more than 10 mM.

B2: P/CAF bromodomain Tyr760Ala mutant, Q92831 719-832 (protein)
chain: SKEPRDPDQLYSTLKSILQQVKSHQSAWPFMEPVKRTEAPGAYEVIRFPMDLKTMSERLKNRYYVSKKLFMADLQRVFTNCKEYNAAESEYYKCANILEKFFFSKIKEAGLIDK
modifications: here or on the partner: acetyl-lysine (AcK) at Lys8
As to B2, in test [1], the Kd is more than 10 mM.

B3: P/CAF bromodomain (residues 719-832 of human p300/CBP-associated factor), wild-type (other)
chain: SKEPRDPDQLYSTLKSILQQVKSHQSAWPFMEPVKRTEAPGYYEVIRFPMDLKTMSERLKNRYYVSKKLFMADLQRVFTNCKEYNAAESEYYKCANILEKFFFSKIKEAGLIDK
notes: Expressed in E. coli with an N-terminal poly-His tag that thrombin removed; residues left over from the vector are not described; 15N-labelled for the NMR titration; also called hsp/CAF bromodomain; bromodomain of P/CAF
For B3, the Kd in test [2] was 0.346 mM.

B4: P/CAF bromodomain Val752Ala mutant, Q92831 719-832 (protein)
chain: SKEPRDPDQLYSTLKSILQQVKSHQSAWPFMEPAKRTEAPGYYEVIRFPMDLKTMSERLKNRYYVSKKLFMADLQRVFTNCKEYNAAESEYYKCANILEKFFFSKIKEAGLIDK
modifications: here or on the partner: acetyl-lysine (AcK) at Lys8
As to B4, in test [1], the Kd is more than 10 mM.

B5: P/CAF bromodomain Tyr809Ala mutant (other)
chain: SKEPRDPDQLYSTLKSILQQVKSHQSAWPFMEPVKRTEAPGYYEVIRFPMDLKTMSERLKNRYYVSKKLFMADLQRVFTNCKEYNAAESEAYKCANILEKFFFSKIKEAGLIDK
notes: Made by site-directed mutagenesis of the wild-type bromodomain construct
As to B5, the binding result in test [3] was “no binding”.

B6: P/CAF bromodomain Tyr809Ala mutant (other)
chain: SKEPRDPDQLYSTLKSILQQVKSHQSAWPFMEPVKRTEAPGYYEVIRFPMDLKTMSERLKNRYYVSKKLFMADLQRVFTNCKEYNAAESEAYKCANILEKFFFSKIKEAGLIDK
notes: Point mutant of the P/CAF bromodomain made by site-directed mutagenesis
As for B6, the binding result in test [4] was “no binding”.
